Data on 32 sequences can be found in the Immune Epitope Database (IEDB).

What all share (assay): IEDB peptide-MHC binding, purified MHC/competitive/radioactivity; filed as Kd, often an IC50 or EC50 that approximates it; ≥ and ≤ were set here for values at or beyond the usual limits of such assays
Holding throughout (settings): source organism: human papillomavirus 18

Test [1] has as its target HLA-A*11:02.
For test [2], the target named is HLA-A*03:01.
In test [3] the target is HLA-A*01:01.
The target in test [4] is HLA-A*02:01.
The target of test [5] is HLA-A*24:02.

By Kd is commonly meant the free concentration of one partner at which half of the binding sites on the other are occupied at equilibrium, for simple one-to-one binding. With ATLQDIVLH, in test [1], the Kd was 12 nM. Consider CIDFYSRIR, for which the Kd in test [2] was 273 nM; in test [1] it was 27 nM; in test [3] it was 810 nM. Regarding DIEITCVYC, the Kd in test [2] was 462 nM; in test [4], 649 nM; in test [3], 506 nM. As for DLFVVYRDS, the Kd in test [2] was determined as 1000 nM. On to ELTEVFEFA, for which the equilibrium dissociation constant (Kd) in test [4] amounted to 500 nM. Same read-out and setting: then FAFKDLFVV, with 3 nM. With FKDLFVVYR, the Kd amounted to 330 nM in test [2], 500 nM in test [4], 500 nM in test [1] and 736 nM in test [3].

Turning to FLNTLSFVC, the Kd in test [4] amounted to 943 nM.

FQQLFLNTL: the dissociation constant (Kd) in test [4] was determined as 417 nM.

As for GLYNLLIRC, the dissociation constant Kd in test [2] stood at 313 nM; in test [4], 135 nM; in test [1] it was 188 nM. As for GQCHSCCNR, the dissociation constant (Kd) in test [1] was found to be 64 nM. Consider HLNEKRRFH, for which, in test [2], the Kd was 667 nM.

As to HTMLCMCCK, the Kd in test [2] was 73 nM; in test [1], 5 nM. In the case of IEITCVYCK, the Kd in test [2] amounted to 200 nM. For KCIDFYSRI, in test [4], the Kd came out at 417 nM. Still for that read-out and setting: then KLPDLCTEL, with 602 nM; and LFLNTLSFV, with 820 nM. Regarding LFVVYRDSI, the Kd in test [2] was found to be 441 nM. For the sequence LIRCLRCQK, the Kd in test [2] was found to be 526 nM; in test [1], 375 nM.

As to LLIRCLRCQ, the Kd in test [2] is 508 nM. With LQDIEITCV, the results for the Kd in test [2] and in test [3] were 625 nM and 988 nM, respectively.

Consider NTGLYNLLI, for which the Kd in test [3] was determined as 506 nM. Regarding RCQKPLNPA, the dissociation constant Kd in test [1] is 563 nM. Regarding RHTMLCMCC, the Kd in test [5] worked out at 733 nM.

On to RQERLQRRR, for which the Kd in test [2] worked out at 484 nM. Consider SIPHAACHK, for which the dissociation constant (Kd) in test [1] stood at 15 nM. Turning to SLQDIEITC, the dissociation constant (Kd) in test [4] came to 532 nM. With SVYGDTLEK, the values for the Kd in test [2] and in test [1] were 32 nM and 2 nM, respectively. Take TEVFEFAFK: the Kd in test [1] is 257 nM. Still for that read-out and setting: then VVYRDSIPH, with 5 nM. In the case of VYCKTVLEL, the Kd stood at 24 nM in test [5] and 563 nM in test [1]. In the case of VYGDTLEKL, in test [5], the Kd came out at 222 nM.
